In the supplement of paper PMC7877785:
± gives the uncertainty stated by the source.

Assay: self-splicing fitness, log relative to wild type (ln ratio); higher = more splicing; Tetrahymena group I intron in knt gene, E. coli kanamycin selection, DiMSum; sequences stand for … in CUCUCU…GGAGGGAAAAGUUAUCAGGCAUGCACCUGGUAGCUAGUCUUUAAACCAAUAGAUUGCAUCGGUUUAAAAGGCAAGACCGUCAAAUUGCGGGAAAGGGGUCAACAGCCGUUCAGUACCAAGUCUCAGGGGAAACUUUGAGAUGGCCUUGCAAAGGGUAUGGUAAUAAGCUGACGGACAUGGUCCUAACCACGCAGCCAAGUCCUAAGUCAACAGAUCUUCUGUUGAUAUGGAUGCAGUUCACAGACUAAAUGUCGGUCGGGGAAGAUGUAUUCUUCUCAUAAGAUAUAGUCGGACCUCUCCUUAAUGGGAGCUAGCGGAUGAAGUGAUGCAACACUGGAGCCGCUGGGAACUAAUUUGUAUGCGAAAGUAUAUUGAUUAGUUUUGGAGUACUCGUGGUCG
Procedure, shortened: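 Fitness was computed with DiMSum as the error-weighted combination of replicate fold changes, kanamycin versus none, each normalised to wild type. The library randomised all eight intron nucleotides of the P1ex region, with the intron placed in the knt kanamycin-resistance gene on pET-22b(+) in E. coli BL21(DE3). Six replicate transformations were grown overnight at 37°C or 30°C on LB agar with or without 25 μg/mL kanamycin, plus 100 μg/mL carbenicillin, 50 μM IPTG and 0.2% rhamnose. Pooled colonies were amplicon-sequenced on an Illumina HiSeq 2500.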

Sequence | self-splicing fitness (ln) (30 °C) | self-splicing fitness (ln) (37 °C)
CGUAAGCAAUAUUACGUUCU | -1.61 ± 0.13 | -0.0321 ± 0.12
AAAUAGCAAUAUUACGGGGU | -3.27 ± 0.17 | -2.12 ± 0.19
CGUUAGCAAUAUUACGCUGG | -1.45 ± 0.28 | -1.83 ± 0.31
AUGGAGCAAUAUUACGUGCG | -3.44 ± 0.32 | -1.8 ± 0.23
GUAGAGCAAUAUUACGGACU | -1.4 ± 0.18 | -0.459 ± 0.23
AAGGAGCAAUAUUACGAAUA | -2.18 ± 0.27 | -2.77 ± 0.38
GGUAAGCAAUAUUACGUACU | -1.82 ± 0.32 | –
UCGCAGCAAUAUUACGGUCA | -0.966 ± 0.1 | 0.119 ± 0.11
GGUGAGCAAUAUUACGAGAG | -4.03 ± 0.27 | -2.38 ± 0.18
UGUCAGCAAUAUUACGUCUG | -0.693 ± 0.1 | -0.104 ± 0.11
AUCAAGCAAUAUUACGAUAC | -4.68 ± 0.39 | -2.17 ± 0.26
UUUCAGCAAUAUUACGUUGA | – | -1.85 ± 0.34
GAAGAGCAAUAUUACGCUAU | -2.39 ± 0.24 | -2.79 ± 0.48
ACCCAGCAAUAUUACGUGGG | -3.34 ± 0.11 | -2.3 ± 0.13
CCUCAGCAAUAUUACGGCGA | -3.72 ± 0.31 | -2.79 ± 0.22
UAUUAGCAAUAUUACGCGAG | -2.21 ± 0.2 | -0.0781 ± 0.15
UGACAGCAAUAUUACGGUUG | -2.49 ± 0.13 | -1.56 ± 0.15
ACAGAGCAAUAUUACGGUCG | -2.29 ± 0.11 | -1.36 ± 0.16
ACAGAGCAAUAUUACGAUUC | -2.88 ± 0.27 | -1.72 ± 0.31
UUGAAGCAAUAUUACGAGUA | -1.83 ± 0.077 | -0.59 ± 0.085
GUGUAGCAAUAUUACGCCUA | -1.92 ± 0.26 | -0.813 ± 0.24
GUCGAGCAAUAUUACGACAC | -0.476 ± 0.2 | -1.13 ± 0.17
UGCUAGCAAUAUUACGCGAG | -4.4 ± 0.39 | -2.11 ± 0.31
ACCAAGCAAUAUUACGUAGU | -2.49 ± 0.078 | -1.75 ± 0.088
GUACAGCAAUAUUACGAGUC | -1.88 ± 0.085 | -1.53 ± 0.096

Sequence | self-splicing fitness (ln) (30 °C) | self-splicing fitness (ln) (37 °C)
UAUUAGCAAUAUUACGAGCG | -0.705 ± 0.11 | -0.219 ± 0.15
AAGAAGCAAUAUUACGCCCG | -0.579 ± 0.18 | -1.38 ± 0.23
UUAGAGCAAUAUUACGUGAU | -3.95 ± 0.28 | -2.52 ± 0.22
UGGGAGCAAUAUUACGAGGG | – | -1.99 ± 0.42
CAUUAGCAAUAUUACGCAGU | -3.73 ± 0.18 | -2.77 ± 0.22
CUCCAGCAAUAUUACGAUUA | -2.63 ± 0.32 | -2.37 ± 0.37
UCCCAGCAAUAUUACGACCG | -3.22 ± 0.3 | -3.01 ± 0.31
CCACAGCAAUAUUACGUAUG | -0.654 ± 0.047 | -0.391 ± 0.065
UUGAAGCAAUAUUACGAUCU | -1.3 ± 0.13 | -0.67 ± 0.14
CAUGAGCAAUAUUACGCCAA | -3.67 ± 0.41 | -2.53 ± 0.36
GCUAAGCAAUAUUACGCAGG | -2.8 ± 0.26 | -3.55 ± 0.39
UACUAGCAAUAUUACGUCAA | -1.32 ± 0.21 | -1.25 ± 0.17
UGGAAGCAAUAUUACGUAAA | -2.28 ± 0.21 | 0.0471 ± 0.21
AAGUAGCAAUAUUACGACUU | -0.629 ± 0.11 | -1.34 ± 0.13
AAGUAGCAAUAUUACGGAAC | -1.4 ± 0.49 | -1.46 ± 0.25
AUCAAGCAAUAUUACGAACA | -1.12 ± 0.08 | -0.578 ± 0.08
GCGUAGCAAUAUUACGAGGA | -1.09 ± 0.42 | –
CCUAAGCAAUAUUACGCUGC | – | -3.02 ± 0.34
GGUGAGCAAUAUUACGGGGA | – | -2.42 ± 0.28
CUCUAGCAAUAUUACGCGUC | -3.9 ± 0.47 | -2.85 ± 0.24
UAGAAGCAAUAUUACGGUUG | -1.79 ± 0.089 | -0.948 ± 0.11
GGCGAGCAAUAUUACGGCUC | -1.83 ± 0.11 | -0.815 ± 0.21
GCGAAGCAAUAUUACGACGC | -1.98 ± 0.47 | –
GAAUAGCAAUAUUACGGCAC | -0.0381 ± 0.12 | -0.000648 ± 0.15
UCUCAGCAAUAUUACGCGGG | -1.7 ± 0.14 | -1.4 ± 0.15

Sequence | self-splicing fitness (ln) (30 °C) | self-splicing fitness (ln) (37 °C)
UAUAAGCAAUAUUACGGAUU | -3.03 ± 0.21 | -1.51 ± 0.19
UACGAGCAAUAUUACGCCGU | -2.69 ± 0.46 | -2.21 ± 0.29
UCUAAGCAAUAUUACGUUAG | -2.19 ± 0.1 | -1.04 ± 0.1
UCGAAGCAAUAUUACGAAUU | -3.1 ± 0.37 | -2.21 ± 0.38
GCAGAGCAAUAUUACGCCCA | -1.07 ± 0.28 | -0.895 ± 0.46
CACAAGCAAUAUUACGGUCU | -2.76 ± 0.1 | -1.99 ± 0.12
GCCAAGCAAUAUUACGUAGC | -2.49 ± 0.14 | -1.31 ± 0.13
GCGGAGCAAUAUUACGGGUG | – | -1.36 ± 0.34
AGCAAGCAAUAUUACGCCCU | -2.12 ± 0.26 | -0.679 ± 0.36
GUGCAGCAAUAUUACGCUCA | -1.31 ± 0.1 | -0.388 ± 0.11
AACCAGCAAUAUUACGAUGU | -0.353 ± 0.039 | 0.149 ± 0.054
GGGUAGCAAUAUUACGUCGC | -1.04 ± 0.23 | 0.272 ± 0.21
UGACAGCAAUAUUACGGAUC | -4.78 ± 0.32 | -2.21 ± 0.16
AUCAAGCAAUAUUACGAAAU | -2.09 ± 0.078 | -1.04 ± 0.092
UCCCAGCAAUAUUACGCCAA | -2.7 ± 0.33 | -1.63 ± 0.3
UCUCAGCAAUAUUACGCGCU | – | -3.12 ± 0.43
UAGCAGCAAUAUUACGAACG | -0.486 ± 0.06 | 0.327 ± 0.085
UUUGAGCAAUAUUACGGGGU | – | -2.11 ± 0.26
AACAAGCAAUAUUACGGCAC | -0.526 ± 0.067 | -0.265 ± 0.1
CUCCAGCAAUAUUACGUGUA | -2.95 ± 0.14 | -2.82 ± 0.19
CCCCAGCAAUAUUACGCACA | -3.56 ± 0.21 | -3.66 ± 0.29
CUACAGCAAUAUUACGCCGA | -2.29 ± 0.18 | -3.15 ± 0.43
CCCUAGCAAUAUUACGAACC | – | -2.28 ± 0.39
CUGAAGCAAUAUUACGGUAA | -3.7 ± 0.24 | -1.27 ± 0.24
UACCAGCAAUAUUACGCUCA | 0.178 ± 0.073 | 0.378 ± 0.081

Sequence | self-splicing fitness (ln) (30 °C) | self-splicing fitness (ln) (37 °C)
ACGCAGCAAUAUUACGCAUA | -2.18 ± 0.13 | -0.994 ± 0.12
CCAUAGCAAUAUUACGUAGG | -2.29 ± 0.078 | -1.37 ± 0.094
UAGUAGCAAUAUUACGCAUG | -1.58 ± 0.092 | -0.443 ± 0.095
UAGGAGCAAUAUUACGACAG | -2.19 ± 0.33 | –
AUCAAGCAAUAUUACGACCG | -1.33 ± 0.15 | -0.381 ± 0.18
UGGGAGCAAUAUUACGCACU | -3.4 ± 0.35 | -1.76 ± 0.33
AAAGAGCAAUAUUACGGUGU | -4.54 ± 0.28 | -2.87 ± 0.21
AAUGAGCAAUAUUACGCUAU | -2.84 ± 0.28 | -1 ± 0.16
CGUGAGCAAUAUUACGUCCA | -2.37 ± 0.26 | -2.38 ± 0.34
CACCAGCAAUAUUACGUUUG | -0.595 ± 0.043 | -0.00269 ± 0.064
CCACAGCAAUAUUACGCUCG | -1.34 ± 0.077 | -0.135 ± 0.088
UCUGAGCAAUAUUACGGACU | -2.57 ± 0.39 | -1.21 ± 0.41
CCACAGCAAUAUUACGGUCA | -3.27 ± 0.21 | -3.22 ± 0.34
GAUUAGCAAUAUUACGAGUG | -1.25 ± 0.094 | -0.616 ± 0.1
UCGGAGCAAUAUUACGUCAU | – | -2.37 ± 0.25
UGACAGCAAUAUUACGCCUC | -3.41 ± 0.26 | -3.24 ± 0.47
AAGGAGCAAUAUUACGGAAG | -3.7 ± 0.34 | -1.63 ± 0.25
UACCAGCAAUAUUACGAUUA | -0.0875 ± 0.065 | 0.118 ± 0.075
CAAAAGCAAUAUUACGACUC | -1.44 ± 0.11 | -0.245 ± 0.13
UUACAGCAAUAUUACGGACA | -1.02 ± 0.11 | -0.885 ± 0.13
AAAUAGCAAUAUUACGACAU | -0.145 ± 0.012 | 0.051 ± 0.032
CCCCAGCAAUAUUACGUACA | -3.37 ± 0.21 | -3.5 ± 0.35
CUACAGCAAUAUUACGAGCU | -3.01 ± 0.21 | -2.19 ± 0.19
ACAGAGCAAUAUUACGCUUG | -1.62 ± 0.12 | -1.63 ± 0.17
